Data on three molecules can be found in patent US20210317230A1 (HANGZHOU SUMGEN BIOTECH, published 2021).

Test [1] concerns the target T1, CD38 on Raji cells (CD38 positive cells) (UniProt P28907 1-300, limits assumed).
T1 sequence (looked up): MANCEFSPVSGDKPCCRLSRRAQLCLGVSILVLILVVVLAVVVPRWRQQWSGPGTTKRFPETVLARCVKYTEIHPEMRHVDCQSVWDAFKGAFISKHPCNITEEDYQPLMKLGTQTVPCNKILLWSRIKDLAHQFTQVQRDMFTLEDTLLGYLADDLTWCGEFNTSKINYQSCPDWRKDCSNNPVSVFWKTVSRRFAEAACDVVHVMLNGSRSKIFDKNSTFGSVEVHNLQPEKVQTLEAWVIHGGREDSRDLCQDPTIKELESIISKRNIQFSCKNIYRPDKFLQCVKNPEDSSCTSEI
The test is described as follows: cell-based or functional assay.

Test [2] addresses T2, CD38-His (UniProt P28907 43-300).
T2 construct: also called target antigen CD38; not shown: His tag
T2 sequence (looked up): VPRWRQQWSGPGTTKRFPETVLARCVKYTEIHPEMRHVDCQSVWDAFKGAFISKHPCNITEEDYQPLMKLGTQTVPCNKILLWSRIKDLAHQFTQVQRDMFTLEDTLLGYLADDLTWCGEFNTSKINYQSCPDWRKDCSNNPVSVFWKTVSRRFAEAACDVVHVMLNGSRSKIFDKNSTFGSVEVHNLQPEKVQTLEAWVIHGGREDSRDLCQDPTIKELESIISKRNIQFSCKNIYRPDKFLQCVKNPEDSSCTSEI
The experiment in a line: ELISA, CD38-His coated at 1 µg/ml, anti-human IgG HRP detection. The method, then:
(1) With SG003 as the control, the binding activity between the fusion protein and CD38 was evaluated by ELISA.
Target antigen CD38-His (1 μg/ml) was coated on ELISA bars, overnight at 4° C.; after washing with PBST, 10% of fetal calf serum was added and blocked at 37° C. for 1 hour; different concentrations of SG003 antibody, SG3847L1 or SG3847L2 fusion protein were added and reacted at 37° C. for 1 hour; after washing with PBST, horseradish peroxidase-labeled goat anti-human IgG secondary antibodies (Goat Anti human IgG HRP, Thermo Fisher Scientific) were added and reacted at 37° C. for 30 minutes, and washed with PBST for 5 times; each well was added with 100 μl TMB (eBioscience), placed in dark at room temperature (20±5° C.) for 1-2 min; then each well was added with 100 μl 2N H₂SO₄ stop solution to terminate the reaction of the substrate, OD values were read at 450 nm on the microplate reader, and the capacity of the fusion protein to bind the target antigen CD38 was analyzed.
In general terms: In an ELISA, binding on a coated surface is turned into a signal by an enzyme label.

Test [3] addresses T3, biotin-labeled CD47 (Biotin-Fc-CD47) (UniProt Q08722 19-141, limits assumed, biotin-labeled).
T3 construct: not shown: Fc part
The experiment in a line: competition ELISA: SIRPα-His coated at 1 µg/ml, Biotin-Fc-CD47 at 2 µg/ml; competitor SIRPα-His. The method, then: SIRPα-His was coated on the assay plate at 1 μg/ml overnight at 4° C.; after washing with PBST, 10% of fetal calf serum was added and blocked at 37° C. for 1 hour; SS002M91, SG3847L1 or SG3847L2 was gradiently diluted respectively with 10% of fetal bovine blood, and Biotin-Fc-CD47 was added into the samples until a final concentration of 2 μg/ml, pre-incubated at 37° C. for 30 min, as the primary antibody; after the assay plate was washed with PBST, the primary antibody was added and incubated at 37° C. for 1 hour; after washing with PBST for 5 times, horseradish peroxidase-labeled avidin (Streptavidin-HRP, Jiaxuan Bio.) was added and incubated at 37° C. for 30 minutes; after washing with PBST for 5 times, each well was added with 100 μl TMB (eBioscience), placed in dark at room temperature (20±5° C.) for 1-5 min; then each well was added with 100 μl 2N H₂SO₄ stop solution to terminate the reaction of the substrate, OD values were read at 450 nm on the microplate reader, and the blocking effects of SS002M91, SG3847L1, SG3847L2 on CD47/SIRPα were analyzed.

In a further test the target is T4, CD47-His (UniProt Q08722 19-141, limits assumed).
T4 construct: also called target antigen CD47; not shown: His tag
T4 sequence (Q08722 19-141 limits assumed): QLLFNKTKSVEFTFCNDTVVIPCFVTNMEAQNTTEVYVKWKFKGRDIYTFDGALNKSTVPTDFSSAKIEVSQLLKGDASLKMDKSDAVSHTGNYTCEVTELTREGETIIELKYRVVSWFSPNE
The test is described as follows: ELISA, CD47-His coated at 1 µg/ml, anti-human IgG HRP detection. How it is done:
Target antigen CD47-His (1 μg/ml) was coated on ELISA bars, overnight at 4° C.; after washing with PBST, 10% of fetal calf serum was added and blocked at 37° C. for 1 hour; different concentrations of SS002M91, SG3847L1 or SG3847L2 was added and reacted at 37° C. for 1 hour; after washing with PBST, horseradish peroxidase-labeled goat anti-human IgG secondary antibodies (Goat Anti human IgG HRP, Thermo Fisher Scientific) were added and reacted at 37° C. for 30 minutes, and washed with PBST for 5 times; each well was added with […] (eBioscience), placed in dark at room temperature (20±5° C.) for 1-2 min; then each well was added with 100 μl 2N H₂SO₄ stop solution to terminate the reaction of the substrate, OD values were read at 450 nm on the microplate reader, and the capacity of the fusion protein to bind the target antigen CD47 was analyzed.

Test [4] has as its target T2, CD38-His. The test is described as follows: bridging ELISA: CD38-His coated, fusion protein titrated, detected with Biotin-Fc-CD47 and streptavidin-HRP (simultaneous binding of CD38 and CD47). The method, then:
(1) Referring to the principle of FIG. 5, with the anti-CD38 humanized antibody SG003 as the control, the biological activities of the fusion proteins SG3847L1 and SG3847L2 to simultaneously bind two antigens CD38 and CD47 were analyzed by ELISA.
Target antigen CD38-His (1 μg/ml) was coated on ELISA bars, overnight at 4° C.; after washing with PBST, 10% of fetal calf serum was added and blocked at 37° C. for 1 hour; different concentrations of SG003 antibody, SG3847L1 or SG3847L2 fusion protein were added and reacted at 37° C. for 1 hour; after washing with PBST, biotin-labeled CD47 (Biotin-Fc-CD47) was added and reacted at 37° C. for 30 minutes, and washed with PBST for 5 times; horseradish peroxidase-labeled avidin (Streptavidin-HRP, Jiaxuan Bio.) was added and reacted at 37° C. for 30 minutes, and washed with PBST for 5 times; each well was added with 100 μl TMB (eBioscience), placed in dark at room temperature (20±5° C.) for 1-2 min; then each well was added with 100 μl 2N H₂SO₄ stop solution to terminate the reaction of the substrate, OD values were read at 450 nm on the microplate reader, and the capacities of the fusion proteins to simultaneously bind the target antigens CD38 and CD 47 were analyzed.

T3 sequence (Q08722 19-141 limits assumed): as above

B1: anti-CD38 humanized antibody SG003 (antibody, human IgG1, kappa, V domains shown)
VH: QVQLLESGGGLVQPGGSLKLSCVASGFDFSLYWMNWVRQAPGKGLEWIGKINPDSSTINYTPSLKDKFFISRDNAKNTLYLQMTKVRSEDTALYYCARLWIATGGFDYWGQGTTLTVSS
VL: EIVMTQSPASLSASLGQRATISCRASSSVSSSAFSYVHWYQQKSGQPPKLLIYLASNLESGVPARFSGSGSGTDFTLTIHPVESEDVATYYCHHSRELPFTFGSGTKLEIKR
notes: also called SG003 antibody
By EC50 is commonly meant the concentration giving half of the maximal effect. In the case of B1, the “ADCC EC50 (specific kill rate, LDH release; Raji target cells, NK92MI-CD16a effector cells)” value (from here on “ADCC EC50”) in test [1] stood at 0.067 nM. In addition, in the test with CD38-His [2], the concentration for a half-maximal effect (EC50) is 0.133 nM.

B2: fusion protein SG3847L1 (bispecific antibody, human IgG1, kappa)
heavy: not shown
light: EIVMTQSPASLSASLGQRATISCRASSSVSSSAFSYVHWYQQKSGQPPKLLIYLASNLESGVPARFSGSGSGTDFTLTIHPVESEDVATYYCHHSRELPFTFGSGTKLEIKRTVAAPSVFIFPPSDEQLKSGTASVVCLLNNFYPREAKVQWKVDNALQSGNSQESVTEQDSKDSTYSLSSTLTLSKADYEKHKVYACEVTHQGLSSPVTKSFNRGEC
notes: First polypeptide chain = SG003 light chain
What is called IC50 is the point on the concentration scale where inhibition reaches its midpoint. A higher IC50 goes with weaker potency. For B2, the “ADCC EC50” value in test [1] worked out at 0.014 nM. The molecule further yielded an IC50 in test [3] of 46.8 nM. The EC50 came to 0.114 nM in the test with CD47-His, 0.175 nM with CD38-His [2] and 0.02 nM with CD38-His [4].

B3: fusion protein SG3847L2 (bispecific antibody, human IgG1, kappa)
heavy: not shown
light: B2 light
notes: as for B2
B3: in test [1], the “ADCC EC50” value came to 0.013 nM. In test [3], this molecule displayed an IC50 of 78.8 nM. For the same molecule, the EC50 was determined as 0.091 nM with CD47-His, 0.149 nM with CD38-His [2] and 0.024 nM with CD38-His [4].
